Results: PMC9482650, “Quantitative fragmentomics allow affinity mapping of interactomes” (Nature Communications, 2022)

Legend:
Assay in all cases: holdup assay
Design in all cases: key: below the threshold = too weak to quantify, mostly under pKd 3.1 to 4
Details in all cases: plain residues with an end cap or a label only (N-terminal biotin on a linker: ado-ado)
HTRA4, P83105 = biological target: T1, HTRA4, P83105
T1 sequence (P83105 378-476, limits assumed, looked up): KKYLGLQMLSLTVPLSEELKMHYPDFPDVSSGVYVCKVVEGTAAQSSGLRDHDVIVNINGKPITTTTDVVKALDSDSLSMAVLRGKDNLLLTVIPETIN

GRIP2_3, Q9C0E4 = biological target: GRIP2_3, Q9C0E4
ARHGEF12, Q9NZN5-2 = biological target: ARHGEF12, Q9NZN5-2
TJP1_2, Q07157 = biological target: TJP1_2, Q07157
DVL3, Q92997 = biological target: T2, DVL3, Q92997
T2 sequence (Q92997 244-331, limits assumed, looked up): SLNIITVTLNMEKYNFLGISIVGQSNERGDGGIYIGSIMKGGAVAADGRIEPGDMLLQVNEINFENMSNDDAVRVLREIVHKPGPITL

ARHGEF11, O15085 = biological target: T3, ARHGEF11, O15085
T3 sequence (O15085 42-136, limits assumed, looked up): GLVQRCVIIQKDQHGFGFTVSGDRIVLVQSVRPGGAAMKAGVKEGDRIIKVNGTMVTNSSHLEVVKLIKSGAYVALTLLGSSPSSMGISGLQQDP

LIMK2, P53671 = biological target: LIMK2, P53671
SNTG1, Q9NSN8 = biological target: T4, SNTG1, Q9NSN8
T4 sequence (Q9NSN8 52-150, limits assumed, looked up): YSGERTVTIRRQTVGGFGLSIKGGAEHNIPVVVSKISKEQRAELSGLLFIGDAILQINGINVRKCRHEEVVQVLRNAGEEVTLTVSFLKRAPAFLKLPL

GRIP1_7, Q9Y3R0 = biological target: T5, GRIP1_7, Q9Y3R0
T5 sequence (Q9Y3R0 999-1096, limits assumed, looked up): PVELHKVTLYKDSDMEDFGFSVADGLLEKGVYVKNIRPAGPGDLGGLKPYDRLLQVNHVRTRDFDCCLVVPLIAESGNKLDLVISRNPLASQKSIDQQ

MPP7, Q5T2T1 = biological target: T6, MPP7, Q5T2T1
T6 sequence (Q5T2T1 134-230, limits assumed, looked up): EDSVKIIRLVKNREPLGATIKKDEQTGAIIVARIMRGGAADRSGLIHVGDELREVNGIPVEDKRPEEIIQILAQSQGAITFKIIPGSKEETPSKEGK

TIAM2, Q8IVF5 = biological target: T7, TIAM2, Q8IVF5
T7 sequence (Q8IVF5 885-986, limits assumed, looked up): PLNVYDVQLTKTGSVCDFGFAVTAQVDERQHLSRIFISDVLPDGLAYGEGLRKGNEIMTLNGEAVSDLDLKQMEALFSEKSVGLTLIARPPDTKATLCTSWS

MAST2, Q6P0Q8 = biological target: MAST2, Q6P0Q8
DLG5_1, Q8TDM6 = biological target: DLG5_1, Q8TDM6
MPDZ_12, O75970 = biological target: T8, MPDZ_12, O75970
T8 sequence (O75970 1857-1958, limits assumed, looked up): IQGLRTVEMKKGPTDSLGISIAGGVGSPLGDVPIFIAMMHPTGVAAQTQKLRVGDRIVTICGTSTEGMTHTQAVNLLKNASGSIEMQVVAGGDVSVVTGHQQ

SCRIB_1, Q14160 = biological target: SCRIB_1, Q14160
NHERF3_3, Q5T2W1 = biological target: T9, NHERF3_3, Q5T2W1
T9 sequence (Q5T2W1 238-333, limits assumed, looked up): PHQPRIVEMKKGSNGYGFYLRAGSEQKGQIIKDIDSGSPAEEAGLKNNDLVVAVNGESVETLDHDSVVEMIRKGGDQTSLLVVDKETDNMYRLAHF

HTRA2, O43464 = biological target: HTRA2, O43464
GOPC, Q9HD26 = biological target: GOPC, Q9HD26
PDZD7_3, Q9H5P4 = biological target: T10, PDZD7_3, Q9H5P4
T10 sequence (Q9H5P4 857-944, limits assumed, looked up): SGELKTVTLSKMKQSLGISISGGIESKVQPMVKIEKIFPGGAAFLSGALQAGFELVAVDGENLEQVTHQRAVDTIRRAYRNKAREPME

MPP2, Q14168 = biological target: T11, MPP2, Q14168
T11 sequence (Q14168 180-250, limits assumed, looked up): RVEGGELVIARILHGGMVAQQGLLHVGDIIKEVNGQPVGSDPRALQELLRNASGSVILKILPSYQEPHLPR

LNX2_2, Q8N448 = biological target: T12, LNX2_2, Q8N448
T12 sequence (Q8N448 334-432, limits assumed, looked up): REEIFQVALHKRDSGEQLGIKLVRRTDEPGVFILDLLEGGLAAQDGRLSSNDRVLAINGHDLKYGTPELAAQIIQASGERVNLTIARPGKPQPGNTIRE

APBA2_1, Q99767 = biological target: T13, APBA2_1, Q99767
T13 sequence (Q99767 563-664, limits assumed, looked up): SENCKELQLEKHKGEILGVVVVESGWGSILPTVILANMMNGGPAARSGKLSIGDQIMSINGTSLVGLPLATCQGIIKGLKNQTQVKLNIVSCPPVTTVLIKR

Inadl_3, Q8NI35 = biological target: Inadl_3, Q8NI35
APBA1_2, Q02410 = biological target: T14, APBA1_2, Q02410
T14 sequence (Q02410 742-832, limits assumed, looked up): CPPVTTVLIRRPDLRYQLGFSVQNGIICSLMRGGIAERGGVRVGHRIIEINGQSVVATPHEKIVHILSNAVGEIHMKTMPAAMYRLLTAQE

Chain of SCRIB_1, Q14160 (Q14160 718-814): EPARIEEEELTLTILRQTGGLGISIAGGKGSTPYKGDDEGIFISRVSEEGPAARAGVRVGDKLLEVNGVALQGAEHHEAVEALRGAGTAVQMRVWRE
Chain of Inadl_3, Q8NI35 (Q8NI35 359-469): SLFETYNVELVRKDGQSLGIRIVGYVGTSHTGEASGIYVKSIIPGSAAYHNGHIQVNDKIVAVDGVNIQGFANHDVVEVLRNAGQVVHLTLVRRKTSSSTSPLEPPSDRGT
Chain of LIMK2, P53671 (P53671 143-248): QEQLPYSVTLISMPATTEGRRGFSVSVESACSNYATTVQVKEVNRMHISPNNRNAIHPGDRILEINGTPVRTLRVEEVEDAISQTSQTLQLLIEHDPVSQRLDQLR
Chain of DLG5_1, Q8TDM6 (Q8TDM6 617-713): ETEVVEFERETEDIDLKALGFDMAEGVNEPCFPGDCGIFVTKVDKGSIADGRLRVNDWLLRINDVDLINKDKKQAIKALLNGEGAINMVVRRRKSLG
Chain of ARHGEF12, Q9NZN5-2 (Q9NZN5 other isoform, or with tags, fused parts or gaps): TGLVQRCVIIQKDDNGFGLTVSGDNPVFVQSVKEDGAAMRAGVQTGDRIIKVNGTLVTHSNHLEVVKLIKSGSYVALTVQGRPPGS
Chain of TJP1_2, Q07157 (Q07157 181-274): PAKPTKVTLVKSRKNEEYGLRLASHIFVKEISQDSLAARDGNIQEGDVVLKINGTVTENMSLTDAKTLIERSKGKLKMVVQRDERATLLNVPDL
Chain of GRIP2_3, Q9C0E4 (Q9C0E4 238-339): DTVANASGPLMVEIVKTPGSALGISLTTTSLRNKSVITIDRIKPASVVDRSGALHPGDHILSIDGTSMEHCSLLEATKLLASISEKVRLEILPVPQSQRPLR
Chain of HTRA2, O43464 (O43464 355-458): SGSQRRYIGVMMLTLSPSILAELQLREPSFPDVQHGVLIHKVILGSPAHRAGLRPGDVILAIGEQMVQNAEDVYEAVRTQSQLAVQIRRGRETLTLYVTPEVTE
Chain of MAST2, Q6P0Q8 (Q6P0Q8 1099-1202): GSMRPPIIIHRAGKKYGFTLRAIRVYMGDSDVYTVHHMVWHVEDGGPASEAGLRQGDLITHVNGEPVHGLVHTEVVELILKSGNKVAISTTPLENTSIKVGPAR

VRNLPESEEL [MYOZ3, Q8TDC0]
pKd (HTRA4, P83105): 3.94 | pKd (GRIP2_3, Q9C0E4): below the threshold | pKd (ARHGEF12, Q9NZN5-2): below the threshold | pKd (TJP1_2, Q07157): below the threshold | pKd (DVL3, Q92997): below the threshold | pKd (ARHGEF11, O15085): 3.83 | pKd (LIMK2, P53671): below the threshold | pKd (SNTG1, Q9NSN8): below the threshold | pKd (GRIP1_7, Q9Y3R0): below the threshold | pKd (MPP7, Q5T2T1): below the threshold | pKd (TIAM2, Q8IVF5): below the threshold | pKd (MAST2, Q6P0Q8): 4.74 | pKd (DLG5_1, Q8TDM6): below the threshold | pKd (MPDZ_12, O75970): below the threshold | pKd (SCRIB_1, Q14160): below the threshold | pKd (NHERF3_3, Q5T2W1): below the threshold | pKd (HTRA2, O43464): below the threshold | pKd (GOPC, Q9HD26): below the threshold | pKd (PDZD7_3, Q9H5P4): 3.74 | pKd (MPP2, Q14168): below the threshold | pKd (LNX2_2, Q8N448): below the threshold | pKd (APBA2_1, Q99767): below the threshold | pKd (Inadl_3, Q8NI35): below the threshold | pKd (APBA1_2, Q02410): below the threshold

QSLNRMEYIV [JAG1, P78504]
pKd (HTRA4, P83105): below the threshold | pKd (GRIP2_3, Q9C0E4): below the threshold | pKd (ARHGEF12, Q9NZN5-2): below the threshold | pKd (TJP1_2, Q07157): below the threshold | pKd (DVL3, Q92997): 3.78 | pKd (ARHGEF11, O15085): below the threshold | pKd (LIMK2, P53671): below the threshold | pKd (SNTG1, Q9NSN8): below the threshold | pKd (GRIP1_7, Q9Y3R0): below the threshold | pKd (MPP7, Q5T2T1): 3.98 | pKd (TIAM2, Q8IVF5): 4.18 | pKd (MAST2, Q6P0Q8): 4.07 | pKd (DLG5_1, Q8TDM6): below the threshold | pKd (MPDZ_12, O75970): below the threshold | pKd (SCRIB_1, Q14160): below the threshold | pKd (NHERF3_3, Q5T2W1): below the threshold | pKd (HTRA2, O43464): 3.88 | pKd (GOPC, Q9HD26): below the threshold | pKd (PDZD7_3, Q9H5P4): 3.68 | pKd (MPP2, Q14168): below the threshold | pKd (LNX2_2, Q8N448): 5.4 | pKd (APBA2_1, Q99767): below the threshold | pKd (Inadl_3, Q8NI35): 5.17 | pKd (APBA1_2, Q02410): below the threshold

LPHGHSTTRV [NLGN4X, Q8N0W4]
pKd (HTRA4, P83105): 4.04 | pKd (GRIP2_3, Q9C0E4): below the threshold | pKd (ARHGEF12, Q9NZN5-2): 3.98 | pKd (TJP1_2, Q07157): below the threshold | pKd (DVL3, Q92997): below the threshold | pKd (ARHGEF11, O15085): 4.04 | pKd (LIMK2, P53671): below the threshold | pKd (SNTG1, Q9NSN8): below the threshold | pKd (GRIP1_7, Q9Y3R0): below the threshold | pKd (MPP7, Q5T2T1): below the threshold | pKd (TIAM2, Q8IVF5): below the threshold | pKd (MAST2, Q6P0Q8): 5.12 | pKd (DLG5_1, Q8TDM6): below the threshold | pKd (MPDZ_12, O75970): below the threshold | pKd (SCRIB_1, Q14160): below the threshold | pKd (NHERF3_3, Q5T2W1): below the threshold | pKd (HTRA2, O43464): below the threshold | pKd (GOPC, Q9HD26): 4.37 | pKd (PDZD7_3, Q9H5P4): 4.28 | pKd (MPP2, Q14168): below the threshold | pKd (LNX2_2, Q8N448): 3.8 | pKd (APBA2_1, Q99767): below the threshold | pKd (Inadl_3, Q8NI35): below the threshold | pKd (APBA1_2, Q02410): 3.54

GNSVLKSTQF [SLC22A12, Q96S37]
pKd (HTRA4, P83105): below the threshold | pKd (GRIP2_3, Q9C0E4): below the threshold | pKd (ARHGEF12, Q9NZN5-2): below the threshold | pKd (TJP1_2, Q07157): below the threshold | pKd (DVL3, Q92997): below the threshold | pKd (ARHGEF11, O15085): below the threshold | pKd (LIMK2, P53671): below the threshold | pKd (SNTG1, Q9NSN8): below the threshold | pKd (GRIP1_7, Q9Y3R0): below the threshold | pKd (MPP7, Q5T2T1): below the threshold | pKd (TIAM2, Q8IVF5): 4.13 | pKd (MAST2, Q6P0Q8): 4.77 | pKd (DLG5_1, Q8TDM6): below the threshold | pKd (MPDZ_12, O75970): below the threshold | pKd (SCRIB_1, Q14160): below the threshold | pKd (NHERF3_3, Q5T2W1): below the threshold | pKd (HTRA2, O43464): below the threshold | pKd (GOPC, Q9HD26): below the threshold | pKd (PDZD7_3, Q9H5P4): 4 | pKd (MPP2, Q14168): below the threshold | pKd (LNX2_2, Q8N448): below the threshold | pKd (APBA2_1, Q99767): below the threshold | pKd (Inadl_3, Q8NI35): below the threshold | pKd (APBA1_2, Q02410): below the threshold

YYKRPVQEWV [MMP24, Q9Y5R2]
pKd (HTRA4, P83105): 4.37 | pKd (GRIP2_3, Q9C0E4): 3.48 | pKd (ARHGEF12, Q9NZN5-2): 3.62 | pKd (TJP1_2, Q07157): 4.1 | pKd (DVL3, Q92997): 4.38 | pKd (ARHGEF11, O15085): 4.3 | pKd (LIMK2, P53671): below the threshold | pKd (SNTG1, Q9NSN8): below the threshold | pKd (GRIP1_7, Q9Y3R0): 3.71 | pKd (MPP7, Q5T2T1): below the threshold | pKd (TIAM2, Q8IVF5): 4.08 | pKd (MAST2, Q6P0Q8): below the threshold | pKd (DLG5_1, Q8TDM6): below the threshold | pKd (MPDZ_12, O75970): 4.39 | pKd (SCRIB_1, Q14160): below the threshold | pKd (NHERF3_3, Q5T2W1): below the threshold | pKd (HTRA2, O43464): 4.4 | pKd (GOPC, Q9HD26): below the threshold | pKd (PDZD7_3, Q9H5P4): below the threshold | pKd (MPP2, Q14168): below the threshold | pKd (LNX2_2, Q8N448): 4.86 | pKd (APBA2_1, Q99767): below the threshold | pKd (Inadl_3, Q8NI35): below the threshold | pKd (APBA1_2, Q02410): 5.02

SKSNFGSEPL [KIF17, Q9P2E2]
pKd (HTRA4, P83105): below the threshold | pKd (GRIP2_3, Q9C0E4): below the threshold | pKd (ARHGEF12, Q9NZN5-2): below the threshold | pKd (TJP1_2, Q07157): below the threshold | pKd (DVL3, Q92997): below the threshold | pKd (ARHGEF11, O15085): below the threshold | pKd (LIMK2, P53671): below the threshold | pKd (SNTG1, Q9NSN8): below the threshold | pKd (GRIP1_7, Q9Y3R0): below the threshold | pKd (MPP7, Q5T2T1): below the threshold | pKd (TIAM2, Q8IVF5): below the threshold | pKd (MAST2, Q6P0Q8): 3.93 | pKd (DLG5_1, Q8TDM6): below the threshold | pKd (MPDZ_12, O75970): below the threshold | pKd (SCRIB_1, Q14160): below the threshold | pKd (NHERF3_3, Q5T2W1): below the threshold | pKd (HTRA2, O43464): below the threshold | pKd (GOPC, Q9HD26): below the threshold | pKd (PDZD7_3, Q9H5P4): below the threshold | pKd (MPP2, Q14168): below the threshold | pKd (LNX2_2, Q8N448): below the threshold | pKd (APBA2_1, Q99767): below the threshold | pKd (Inadl_3, Q8NI35): below the threshold | pKd (APBA1_2, Q02410): below the threshold
